Laboratory results published in PMC12123462, “Novel Click Coupling Chemistry to Explore Glycan Recognition” (ACS Central Science, 2025).

Substrate: CC(=O)N[C@H]1[C@H]([C@H](O)[C@H](O)CO)O[C@](OP(=O)(O)OC[C@H]2O[C@@H](n3ccc(N)nc3=O)[C@H](O)[C@@H]2O)(C(=O)O)C[C@@H]1O
Assay: neoglycoprotein ELISA, product detected with APDye-532 SNA
Assay type: biochemical, Homo sapiens
Conditions: acceptor BSA-LNnT immobilised (250 ng/well), MES pH 6.5, 37 °C, 2 h
Source text: neoglycoprotein ELISA, product detected with APDye-532 SNA on recombinant human ST6Gal1 | K m of CMP-Sia for the recombinant human ST6Gal1

B1: recombinant human ST6Gal1 (Homo sapiens) (protein)
chain: KEKKKGSYYDSFKLQTKEFQVLKSLGKLAMGSDSQSVSSSSTQDPHRGRQTLGSLRGLAKAKPEASFQVWNKDSSSKNLIPRLQKIWKNYLSMNKYKVSYKGPGPGIKFSAEALRCHLRDHVNVSMVEVTDFPFNTSEWEGYLPKESIRTKAGPWGRCAVVSSAGSLKSSQLGREIDDHDAVLRFNGAPTANFQQDVGTKTTIRLMNSQLVTTEKRFLKDSLYNEGILIVWDPSVYHSDIPKWYQNPDYNFFNNYKTYRKLHPNQPFYILKPQMPWELWDILQEISPEEIQPNPPSSGMLGIIIMMTLCDQVDIYEFLPSKRKTDVCYYYQKFFDSACTMGAYHPLLYEKNLVKHLNQGTDEDIYLLGKATLPGFRTIHC
notes: recombinant
Km: 141.4 µM
